{"source": "paper PMC3958255", "about": "(Sensors (Basel, Switzerland), 2014)", "binders": {"B1": {"name": "Ln-Fos (bFos fused downstream of mLumin (1-151)) (domain or fragment, UniProt P01100 118-210, looked up)", "chain": "GRAQSIGRRGKVEQLSPEEEEKRRIRRERNKMAAAKCRNRRRELTDTLQAETDQLEDEKSALQTEIANLLKEKEKLEFILAAHRPACKIPDDL", "notes": "primers are in the Supporting Information; also called Ln-bFos; source: COS-7, transfected (pBudCE4.1 bicistronic vector), in living cells; not shown: mLumin (1-151) (Ln), N-terminal, kept"}}, "key": {"[1]": {"biological_target": "T1, Lc-Jun (bJun fused downstream of mLumin (151-233)) (UniProt P05412 257-318)", "T1 construct": "primers are in the Supporting Information; also called Lc-bJun; source: COS-7, transfected (pBudCE4.1 bicistronic vector), in living cells; not shown: mLumin (151-233) (Lc), N-terminal, kept", "T1 sequence (P05412 257-318)": "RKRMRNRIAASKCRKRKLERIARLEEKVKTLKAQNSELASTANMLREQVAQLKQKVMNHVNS", "test": "split reporter (BiFC, NanoBiT); mLumin-based BiFC from the bicistronic vector pBudCE4.1 (BEVL-BiFC) in living COS-7 cells; 100 ng vector (also 300 ng) with 30 ng pmCerulean-C1 as internal control; imaged 16 h after cotransfection; BiFC efficiency = fluorescence intensity ratio of mLumin to mCerulean", "settings": "partners not purified"}, "[2]": {"biological_target": "T2, Jun-Lc (bJun fused upstream of mLumin (151-233)) (UniProt P05412 257-318)", "T2 construct": "primers are in the Supporting Information; also called bJun-Lc; source: COS-7, transfected (pBudCE4.1 bicistronic vector), in living cells; not shown: mLumin (151-233) (Lc), C-terminal, kept", "T2 sequence (P05412 257-318)": "as above", "test": "split reporter (BiFC, NanoBiT); mLumin-based BiFC from the bicistronic vector pBudCE4.1 (BEVL-BiFC) in living COS-7 cells; 100 ng vector (also 300 ng) with 30 ng pmCerulean-C1 as internal control; imaged 16 h after cotransfection; BiFC efficiency = fluorescence intensity ratio of mLumin to mCerulean", "settings": "partners not purified"}}}
{"binder": "B1", "values": [{"measurement": "fold contrast in BiFC efficiency over ΔFos/Jun", "setting": "[1]", "result": "~25", "unit": "fold"}, {"measurement": "fold contrast in BiFC efficiency over ΔFos/Jun", "setting": "[2]", "result": "~25", "unit": "fold"}]}
